This series addresses nucleolin (NuP), recombinant human (Homo sapiens) (UniProt P19338). Description: SPR. The conditions noted are these: SPR with recombinant human nucleolin, buffer, salt, pH and temperature not given in the material.

What is called Kd is the equilibrium constant for the complex coming apart.

nucleolin (NuP), recombinant human (Homo sapiens), sequence (P19338 2-710): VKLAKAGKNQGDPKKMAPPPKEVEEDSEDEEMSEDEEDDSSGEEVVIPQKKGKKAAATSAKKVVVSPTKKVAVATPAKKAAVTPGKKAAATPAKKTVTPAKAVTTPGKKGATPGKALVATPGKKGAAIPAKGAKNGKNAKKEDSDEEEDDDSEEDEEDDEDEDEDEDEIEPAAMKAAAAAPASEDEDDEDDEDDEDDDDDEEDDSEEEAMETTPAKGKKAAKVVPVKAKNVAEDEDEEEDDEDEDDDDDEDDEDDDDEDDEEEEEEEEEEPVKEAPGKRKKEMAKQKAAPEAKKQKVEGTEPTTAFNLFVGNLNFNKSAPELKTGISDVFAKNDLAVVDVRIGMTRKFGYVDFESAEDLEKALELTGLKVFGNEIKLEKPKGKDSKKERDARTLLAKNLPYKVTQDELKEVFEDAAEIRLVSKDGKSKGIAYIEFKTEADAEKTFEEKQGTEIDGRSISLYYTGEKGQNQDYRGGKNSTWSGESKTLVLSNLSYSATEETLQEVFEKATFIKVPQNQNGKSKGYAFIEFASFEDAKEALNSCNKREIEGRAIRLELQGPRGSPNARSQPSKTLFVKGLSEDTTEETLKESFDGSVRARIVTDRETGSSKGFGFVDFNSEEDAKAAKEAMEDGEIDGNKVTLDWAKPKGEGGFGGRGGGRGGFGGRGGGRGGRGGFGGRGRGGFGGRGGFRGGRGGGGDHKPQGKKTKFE

With GGTGGTGGTGGTTGTGGTGGTGGTGG [AS1411], where the note is “1:1 Langmuir fit, 5' CH2CH2-(OCH2CH2)3-O linker as listed in Table S1, 5' amino form also listed, form used in SPR not stated”, the dissociation constant Kd came to 3.77 nM. Consider “GGTGGTGGTGGTTGTGGTGGTGGTGG [AS-TP (TP-amino-AS1411, 6a)]”, for which the Kd (5' triptolide via acetal ester linker - amino-CH2CH2-(OCH2CH2)3-O-) is 4.03 nM.

(Values after publication PMC11270970.)
